# Experimental data: IntAct's records for PubMed 31260151
# B1: Serine protease HTRA3 (Homo sapiens), P83110-2 (parent)
# chain: MQARALLLAALAALALAREPPAAPCPARCDVSRCPSPRCPGGYVPDLCNCCLVCAASEGEPCGGPLDSPCGESLECVRGLCRCRWSHAVCGTDGHTYANVCALQAASRRALQLSGTPVRQLQKGACPLGLHQLSSPRYKFNFIADVVEKIAPAVVHIELFLRHPLFGRNVPLSSGSGFIMSEAGLIITNAHVVSSNSAAPGRQQLKVQLQNGDSYEATIKDIDKKSDIATIKIHPKKKLPVLLLGHSADLRPGEFVVAIGSPFALQNTVTTGIVSTAQREGRELGLRDSDMDYIQTDAIINYGNSGGPLVNLDGEVIGINTLKVTAGISFAIPSDRITRFLTEFQDKQIKAPSLAVH
# B2: Serine protease HTRA3 (Homo sapiens), P83110-1 (parent)
# chain: MQARALLLAALAALALAREPPAAPCPARCDVSRCPSPRCPGGYVPDLCNCCLVCAASEGEPCGGPLDSPCGESLECVRGLCRCRWSHAVCGTDGHTYANVCALQAASRRALQLSGTPVRQLQKGACPLGLHQLSSPRYKFNFIADVVEKIAPAVVHIELFLRHPLFGRNVPLSSGSGFIMSEAGLIITNAHVVSSNSAAPGRQQLKVQLQNGDSYEATIKDIDKKSDIATIKIHPKKKLPVLLLGHSADLRPGEFVVAIGSPFALQNTVTTGIVSTAQREGRELGLRDSDMDYIQTDAIINYGNSGGPLVNLDGEVIGINTLKVTAGISFAIPSDRITRFLTEFQDKQIKDWKKRFIGIRMRTITPSLVDELKASNPDFPEVSSGIYVQEVAPNSPSQRGGIQDGDIIVKVNGRPLVDSSELQEAVLTESPLLLEVRRGNDDLLFSIAPEVVM
# Variants of: B1
# Details: with xiap_human XIAP
row,effect of a mutation on the interaction,Variant
1,decreasing interaction strength,S305A

# Variants of: B2
# Details: with xiap_human XIAP
# Target sequence in this assay (P98170 whole entry): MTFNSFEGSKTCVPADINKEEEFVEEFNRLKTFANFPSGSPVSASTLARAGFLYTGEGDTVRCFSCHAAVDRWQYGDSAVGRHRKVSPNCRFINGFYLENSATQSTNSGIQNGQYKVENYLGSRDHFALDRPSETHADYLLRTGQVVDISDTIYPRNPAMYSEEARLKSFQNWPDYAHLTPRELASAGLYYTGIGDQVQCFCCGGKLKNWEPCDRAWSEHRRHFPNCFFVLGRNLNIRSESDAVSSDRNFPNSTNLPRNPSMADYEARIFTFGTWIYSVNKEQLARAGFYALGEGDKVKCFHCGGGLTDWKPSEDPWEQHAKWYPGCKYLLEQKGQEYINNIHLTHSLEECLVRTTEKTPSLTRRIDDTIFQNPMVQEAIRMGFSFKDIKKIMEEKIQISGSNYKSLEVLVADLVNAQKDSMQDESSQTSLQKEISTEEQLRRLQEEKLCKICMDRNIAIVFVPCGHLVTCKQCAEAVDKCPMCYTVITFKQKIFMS
row,effect of a mutation on the interaction,Variant
1,decreasing interaction strength,S305A
